Here are results for 2 molecules from publication PMC8166883 (Cellular and Molecular Immunology, 2020).

The target of experiment [1] is T1, histidine-tagged human semaphorin 3A fused with alkaline phosphatase (hSema3A-his-AP) (Homo sapiens, UniProt Q14563).
T1 construct: human semaphorin 3A; The expressing cells were a gift from Dr. Yoshio Goshima; the construct is not described further; source: HEK293 cells, stably expressed, purified (HisTrap Excel column, gel filtration)
Kind of experiment: ELISA; antigen immobilised on MaxiSorp 384-well plates (62.5 ng/well), blocked with 1% BSA in PBS; DT40 culture supernatants 1 h at room temperature; detected by anti-hIgG-Fc HRP. The settings on record: one partner purified.

For experiment [2], the target named is T2, FLAG-tagged human vascular endothelial growth factor-A (FLAG-hVEGF-A) (Homo sapiens, UniProt P15692-4).
T2 construct: human vascular endothelial growth factor-A; The cell-based assays used bought recombinant hVEGF165 (Pepro Tech), not this construct
The experiment in a line: SPR; Biacore T200; mAb held by anti-hIgG capture antibodies amine-coupled to a CM5 chip; purified antigen serially diluted in HBS-EP+ (100, 33.3, 11.1, 3.7, 1.23, 0.412 nM) injected 240 s at 30 µL/min, 300 s dissociation; 1:1 Langmuir binding model with mass transfer; KD calculated as kd/ka. The settings on record: both partners purified.

T1 sequence (Q14563 21-771): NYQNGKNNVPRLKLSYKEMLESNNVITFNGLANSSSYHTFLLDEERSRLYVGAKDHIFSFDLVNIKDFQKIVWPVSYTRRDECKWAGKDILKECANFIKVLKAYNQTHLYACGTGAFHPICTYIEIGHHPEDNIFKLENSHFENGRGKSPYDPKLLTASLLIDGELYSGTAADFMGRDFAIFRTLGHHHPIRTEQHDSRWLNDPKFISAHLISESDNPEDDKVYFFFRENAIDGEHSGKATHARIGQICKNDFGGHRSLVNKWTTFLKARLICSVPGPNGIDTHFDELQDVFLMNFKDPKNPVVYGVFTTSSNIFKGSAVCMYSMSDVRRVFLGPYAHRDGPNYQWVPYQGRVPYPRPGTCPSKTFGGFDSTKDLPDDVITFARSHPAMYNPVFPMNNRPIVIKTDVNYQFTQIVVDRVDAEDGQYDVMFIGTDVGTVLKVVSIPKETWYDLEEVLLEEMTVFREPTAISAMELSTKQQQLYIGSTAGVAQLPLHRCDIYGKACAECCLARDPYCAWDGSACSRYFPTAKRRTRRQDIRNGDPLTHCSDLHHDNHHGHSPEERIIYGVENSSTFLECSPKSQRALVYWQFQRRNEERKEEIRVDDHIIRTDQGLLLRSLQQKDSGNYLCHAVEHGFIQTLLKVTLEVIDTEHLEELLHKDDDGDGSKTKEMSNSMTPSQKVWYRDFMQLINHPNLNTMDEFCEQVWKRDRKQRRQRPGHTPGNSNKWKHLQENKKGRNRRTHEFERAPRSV

B1: anti-hSema3A clones from the L30H45(fff) single clone-derived library (three clones with identical HC and LC sequences) (antibody, V domains shown)
VH: EVQLLESGGGLVQPGGSLRLSCAASGFTFSSYWMSNEMSWVRQAPGKGLEWVSSISGGSTYYADSVKGRFTISRDNSKNTLYLQMNSLRAEDTAVYYCAKGYSGYDYYFDYWGQGTLVTVSS
VL: QSALTQPASVSGSPGQSITISCTGTSSDVGGYNYVSWYQQNPGKAPKLMIYDVSNRPSGISNRFSGSKSGNTASLTISGLQADDEADYYCTSYTNDSNSQVFGGGTKLTVL
notes: human IgG1 heavy chain constant region (CH1, hinge, CH2, CH3); human Igλ constant region (hCλ) amplified from Ramos cell cDNA; Full-length human IgG1, λ; source: DT40 L30H45(fff) cells treated with TSA for 86 days, selected on hSema3A-his-AP beads, limiting dilution cloning
Regarding B1, the binding result in experiment [1] was “binds”.

B2: anti-hVEGF-A clone A033AM-19 (affinity-matured from A033) (antibody, V domains shown)
VH: EVELVQSGAEVKKPGSSVKVSCKASGGTFSDYSISWVRQAPGQGLEWMGGIIPIFGTPNYAQKFQGRVTITADESTSTAYMELSSLRSEDTAVYYCADGGAYCGGDCYSGYYYYGMDVWGQGTTVTVSS
VL: QSALTQPASVSGSPGQSITISCTGTSSDVGGYNLVSWYQQHPGKAPKLMIYQDNNKRPSGVSNRFSGSKSGNTASLTISGLQAEDEADYYCSYTNDSNSQVFGGGTKLTVL
notes: human IgG1 heavy chain constant region (CH1, hinge, CH2, CH3); as the light chain of m7 (identical LC); human Igλ constant region (hCλ) amplified from Ramos cell cDNA; Full-length human IgG1, λ; source: DT40 cells (subclone of A033 sorted after culture without TSA), secreted human IgG, purified
B2: the Kd in experiment [2] is 0.0491 nM.
